Changes are numbered by the printed parent chain.
How the values were obtained:
Assay in all cases: in vitro translated PTP HSCF mutant precipitated with 1 or 10 µg/ml GST PST PIP
[1] = biological target: T1, PTP HSCF with P447 mutated to alanine, HA tagged (UniProt Q61152 1-453)
T1 construct: range 1-453; also called HSCF P447
T1 sequence (looked up): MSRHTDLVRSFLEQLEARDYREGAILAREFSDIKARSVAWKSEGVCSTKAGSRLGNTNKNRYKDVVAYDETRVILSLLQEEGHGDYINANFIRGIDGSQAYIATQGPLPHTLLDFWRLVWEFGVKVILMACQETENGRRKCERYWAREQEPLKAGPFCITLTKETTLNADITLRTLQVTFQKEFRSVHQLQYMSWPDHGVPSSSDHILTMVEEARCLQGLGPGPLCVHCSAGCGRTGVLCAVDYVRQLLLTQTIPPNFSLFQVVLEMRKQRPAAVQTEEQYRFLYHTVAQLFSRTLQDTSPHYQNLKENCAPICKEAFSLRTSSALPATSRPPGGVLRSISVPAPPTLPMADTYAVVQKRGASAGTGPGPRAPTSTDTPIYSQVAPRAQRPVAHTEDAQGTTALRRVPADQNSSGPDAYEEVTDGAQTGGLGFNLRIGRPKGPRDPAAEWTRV
Protocol: (§1) Multiple bands precipitated with the GST PST PIP fusion protein are apparently C-terminal proteolyzed products of the PTP. Also shown are GST PST PIP precipitations (10 μg/ml) performed on a double mutant of PTP HSCF (R+W) with both residues $R444$ and $W450$ mutated to alanine (bottom panel FIG. 14 A/2). B. COS cells were co-transfected with a 10:1 ratio of plasmids encoding hemagglutinin (HA) tagged PTP HSCF with the illustrated alanine substitutions or a mutant of PTP HSCF deleted for the C-terminal 24 amino acids (PTP $HSCFD24$) and wild type PST PIP with a C-terminal FLAG epitope tag, respectively. Transfected cell lysates were immunoprecipitated with anti-HA monoclonal antibodies and the precipitates were blotted with anti-PST PIP polyclonal antibody to detect the relative amounts of PST PIP complexed with either wild type or different mutant forms of PTP HSCF. Lysates were also immunoprecipitated with anti-HA antibody and blotted with the same antibody to insure equal expression of PTP HSCF. Equal expression of PSTPIP was determined by immunoprecipitating lysates with anti-FLAG monoclonal antibody and blotting with anti-PST PIP polyclonal antibody.
(§2) In vitro binding analyses between various PTP HSCF and PST PIP constructs were performed as previously described (Spencer et al, (1997), supra). Briefly, plasmids were transcribed and translated in vitro using the TnT Rabbit Reticulocyte Lysate System (Promega). Samples were diluted in 50 mM HEPES, pH 7.2, 1% triton X-100, 10% glycerol, 100 mM NaCl, and 2 µg/ml each of leupeptin, pepstatin, aprotinin and PMSF (lysis buffer). Samples were than reacted with GST fusion proteins at various concentrations, and the bound proteins were centrifuged using glutathione-sepharose beads and analyzed on SDS polyacrylamide gels. C-terminally-derived peptide inhibition studies were performed by incubating the GST fusion protein binding reactions in the presence of 10 µg/ml of the indicated peptides. Peptides were produced by FMOC-protected amino acids as previously described (Spencer et al, (1997), supra). In vivo interactions between various forms of PTP HSCF and PST PIP were also performed as previously described (Spencer et al, (1997), supra).

[2] = biological target: T2, PTP HSCF with R436 mutated to alanine, HA tagged (UniProt Q61152 1-453)
T2 construct: range 1-453; also called HSCF R436
T2 sequence (looked up): T1 sequence (looked up) with R436A, A447P
Protocol: as §1, §2

[3] = biological target: T3, PTP HSCF with G442 mutated to alanine, HA tagged (UniProt Q61152 1-453)
T3 construct: range 1-453; also called HSCF G442
T3 sequence (looked up): T1 sequence (looked up) with G442A, A447P
Protocol: as §1, §2

Measured: binding result

B1: GST-PSTPIP (GST fusion of full-length PSTPIP, amino acids 2-415) (other)
chain: MAQLQFRDAFWCRDFTAHTGYEVLLQRLLDGRKMCKDVEELLRQRAQAEERYGKELVQIARKAGGQTEMNSLRTSFDSLKQQTENVGSAHIQLALALREELRSLEEFRERQKEQRKKYEAIMDRVQKSKLSLYKKTMESKKAYDQKCRDADDAEQAFERVSANGHQKQVEKSQNKAKQCKESATEAERVYRQNIEQLERARTEWEQEHRTTCEAFQLQEFDRLTILRNALWVHCNQLSMQCVKDDELYEEVRLTLEGCDVEGDINGFIQSKSTGREPPAPVPYQNYYDREVTPLIGSPSIQPSCGVIKRFSGLLHGSPKTTPSAPAASTETLTPTPERNELVYASIEVQATQGNLNSSAQDYRALYDYTAQNSDELDISAGDILAVILEGEDGWWTVERNGQRGFVPGSYLEKL
notes: Made in DH5-alpha bacteria from pGEX4T-2; also called GST-full-length PSTPIP; GST PTP PIP; not shown: glutathione S-transferase encoded by pGEX-4T-2 (Pharmacia)
binds: [1] | [2] | [3]

— patent US6887705B1, “Tyrosine phosphorylated cleavage furrow-associated proteins (PSTPIPs)” (Genentech, Inc., priority 1997, dated 2005)
